B1: BME_RS14525 (ftrA) (dsDNA)
DNA 1: CTTAATGAAAAATCTATTCAG
DNA 2: CTGAATAGATTTTTCATTAAG
B2: BME_RS01725 (membrane protein) (dsDNA)
DNA 1: GCATATTTTAGAATTATTCTAAATT
DNA 2: AATTTAGAATAATTCTAAAATATGC
B3: BME_RS10660 (zntA) (dsDNA)
DNA 1: TCAGGCAAGCTTCATGCCCATATCC
DNA 2: GGATATGGGCATGAAGCTTGCCTGA
B4: BME_RS13655 (2Fe-2S binding protein) (dsDNA)
DNA 1: CGGTTTATTTTGTTTTTTTAGTTTC
DNA 2: GAAACTAAAAAAACAAAATAAACCG
B5: BME_RS09560 (hypothetical protein) (dsDNA)
DNA 1: ATGTTATAGAGCGATTCTGGTT
DNA 2: AACCAGAATCGCTCTATAACAT

In this data set the target is Irr (iron response regulator) (Brucella melitensis M5-90, UniProt Q842L5 1-145). Nature of the data set: EMSA. The following applies: protein: ivt; tags: Halo (pDAP-Halo-Kan vector); chain copies: 2; label: biotin; blunt. In general terms: In EMSA bound probe runs differently from free probe, usually more slowly.
Consider B1, for which the binding result is “binds”.
The entry for B2 is “binds”.
The result for B3 reads “binds”; that for B4, “binds”; that for B5, “binds”.

Values taken from article PMC10374146.
